B1: TPR t1 (parent)
chain: GACCAAUCUGCCCUCAGAGCUCGAGAACAUCUUCGGAUGCAGAGGAGGCAGGCUUCGGUGGCGCGAUAGCGCCAACGUCCUCAACCUCCAAUGCAUCCCACCACAUGAUGAUGCCUGAAGAGCCUUGGUUUUUUG

Variants of: B1
Test: polymerase ribozyme fitness, log enrichment relative to wild type (log ratio); higher = more active; in vitro selection for triplet polymerase activity
Summary of the method: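 Fitness compares each genotype's enrichment to that of the wild type on a logarithmic scale, averaging replicates with inverse-variance weights. The logarithm is base 2. Enrichment came from Illumina sequencing of input and output libraries after one triplicate round of in vitro selection, which included frozen incubation at −7 °C, of PCR-built, transcribed mutant libraries of each subunit of a heterodimeric triplet polymerase ribozyme. Only genotypes with ≥10 input reads and ≥1 read per output were kept.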

With GACCAAUCUGCCCUCAGAGCUCGAGAACAUCUUCGGAGGCAGAGGAGGCAGGCUUCGGUGGCGCGAUACCGCCAACGUCCUCAACCUCCAAUGCAUCCCACCACAUGAUGACGCCUGAAGAGCCUUGGUUUUUUG [U38G G69C U112C] as the variant, how does the “polymerase ribozyme fitness (log ratio)” value read?
The value was -1.03.

For GACCAAUCUGCCCUCAGAGCUCGAGAACAUCUUCGGAGGCAGAGGAGGCAGGCUUCGGUGGCGCGAUAUCGCCAACGUCCUCAACCUCCAAUGCAUCCCACCACAUGAUGAUGCCUGAAGAGCCUUGGUUUUUUG [U38G G69U], which “polymerase ribozyme fitness (log ratio)” value is on record?
Its value is -0.236.

For GACCAAUCUGCCCUCAGAGCUCGAGAACAUCUUCGGAGGCAGAGGAGGCAGGCUUCGGUGGCGCGAUAGCGCCAACGUCCUCAACCUCCAAUGCAUCCCACCACAUGAUGAUGCGUGAAGAGCCUUGGUUUUUUG [U38G C115G], which “polymerase ribozyme fitness (log ratio)” value is on record?
Its value is -3.06.

Which “polymerase ribozyme fitness (log ratio)” value does the source give for GACCAAUCUGCCCUCAGAGCUCGAGAACAUCUUCGGACGCAGAGGAUGCAGGCUUCGGUGCCGCGAUAGCGCCAACGUCCUCAACCUCCAAUGCCUCCCACCACAUGAUGAUGCCUGAAGAGCCUUGGUUUUUUG [U38C G47U G61C A95C] here?
Its value is -3.89.

For GACCAAUCUGCCCUCAGAGCUCGAGAACAUCUUCGGAGGCAGAGGAGGCAGGCUUCGGUGGCGCGAUAGCGUCAACGUCCUCAACCUCCAAUGCAUCCCACCAUAUGAUGAUGCCUGAAGAGCCUUGGUUUUUUG [U38G C72U C104U], which “polymerase ribozyme fitness (log ratio)” value is on record?
Its value is -1.14.

For GACCAAUCUGCCCUCAGAGCUCGAGAACAUCUUCGGAUACAGAGGUGGCAGGCUUCGGUGGCGCGAUAGCGCCAACGUCCUCAACCUCCAAUGCAUCCCACCACAUGAUGAUGCCUGAAGAGCCUUGGUUUUUUG [G39A A46U], which “polymerase ribozyme fitness (log ratio)” value is on record?
The value was -1.28.

Which “polymerase ribozyme fitness (log ratio)” value does the source give for GACCAAUCUGCCCUCAGAGCUCGAGAACAUCUUCGGAGGCAGAGGAGGCAGGCUUCGGUGGCGUGCUAGCGCCAACGUCCUCAACCUCCUCUGCAUCCCACCACAUGAUGAUGCCUGAAGAGCCUUGGUUUUUUG [U38G C64U A66C A90U A91C] here?
Its value is -5.32.

Which “polymerase ribozyme fitness (log ratio)” value does the source give for GACCAAUCUGCCCUCAGAGCUCGAGAACAUCUUCGGAGGCAGUGGAGUCAGGCUUCGGUGGCGCGAUAGCGCCAACGUCCUCAACCUGCAAUGCAUCCCACCACAUGAUGAUGCCUGAAGAGCCUUGGUUUUUUG [U38G A43U G48U C88G] here?
The value was -5.48.

Which “polymerase ribozyme fitness (log ratio)” value does the source give for GACCAAUCUGCCCUCAGAGCUCGAGAACAUCUUCGGAGGCAGAGGAGGCAGGCUUCGGUGGCGCGAUAGCGCCAACGUCCUCAACCUCAAAUGCAACCCACCACAUGAUGAUGGCUGAAGAGCCUUGGUUUUUUG [U38G C89A U96A C114G] here?
Its value is -5.44.

Which “polymerase ribozyme fitness (log ratio)” value does the source give for GACCAAUCUGCCCUCAGAGCUCGAGAACAUCUUCGGACGCAUAGGAGGCAGGCUUCGGUGGGGCGAUAGCGCCAACGUCCUCAACCUCCAAUGCAUCCCACCACAUGAUGAUGCCUGAAGAGCCUUGGUUUUUUG [U38C G42U C62G] here?
The value was -5.61.

With GACCAAUCUGCCCUCAGAGCUCGAGAACAUCUUCGGAGGCUGAGGAGGCAGGGUUCGGUGGAGCGAUAGCGCCAACGUCCUCAACCUCCAAUGCAUCCCACCACAUGAUGAUACCUGACGAGCCUUGGUUUUUUG [U38G A41U C53G C62A G113A A119C] as the variant, how does the “polymerase ribozyme fitness (log ratio)” value read?
Its value is -5.91.

Which “polymerase ribozyme fitness (log ratio)” value does the source give for GACCAAUCUGCCCUCAGAGCUCGAGAACAUCUUCGGAGGCAGAGGAGGCAGGCUUCGGUGGCGUGAUAGCGCCAACGUCGUCAACCUCCAAUGCAUCCCACCACAUGAUGAUGCCUGAAGAGCCUUGGUUCUUUG [U38G C64U C80G U131C] here?
Its value is -6.8.

With GACCAAUCUGCCCUCAGAGCUCGAGAACAUCUUCGGAGGCAGAGGAGGAAGGCCUCGGUGGCGCGAUAUCGCCAACGUCCUCAACCUCCAAUGCAUCCCACCAAAUGAUGAUGCCUGAAGAGCCUUGGUUUUUUG [U38G C49A U54C G69U C104A] as the variant, how does the “polymerase ribozyme fitness (log ratio)” value read?
The value was -0.856.

For GACCAAUCUGCCCUCAGAGCUCGAGAACAUCUUCGGAUACAGAGGUGGCAGGCUUCGGUGGCGCGAUAGCGCCAACGACCUCAACCUCCAAUGCAUCCCACCACAUGAUGAUGCCUGAAGAGCCUCGGUUUUUUG [G39A A46U U78A U126C], which “polymerase ribozyme fitness (log ratio)” value is on record?
The value was -3.53.

With GACCAAUCUGCCCUCAGAGCUCGAGAACAUCUUCGGACGCAGGGGAGGCAGGCUUCGGUGGCGCGAUAGCGCUAACGUCCUCAACCUCCAAUACAUCCCACCACAUGAUGAUGCCUGAAGAGCCUUGGUUUUUUG [U38C A43G C73U G93A] as the variant, how does the “polymerase ribozyme fitness (log ratio)” value read?
Its value is -4.56.

Which “polymerase ribozyme fitness (log ratio)” value does the source give for GACCAAUCUGCCCUCAGAGCUCGAGAACAUCUUCGGAGGCAGAGGUGGCAGGCUUCGGUGACGCGAUAGCGCCAACGUCCUCAACCACCAAUGCAUCCCACCACAUGAUGAUGCCUGAAGAGCCUUGGUUUUUUG [U38G A46U G61A U87A] here?
The value was -0.463.

With GACCAAUCUGCCCUCAGAGCUCGAGAACAUCUUCGGAUACAGUGGAGGCAGGCUUCGGUGGCGCGAUAGCGUGAACGUCCUCAACCUCCAAUGCAUCCCACCACAUGAUGAUGCGUGAAGAGCCUCGGUUUUUUG [G39A A43U C72U C73G C115G U126C] as the variant, how does the “polymerase ribozyme fitness (log ratio)” value read?
The value was -5.51.

Which “polymerase ribozyme fitness (log ratio)” value does the source give for GACCAAUCUGCCCUCAGAGCUCGAGAACAUCUUCGGAAGCAGAGGAGGCAGGCUUCGGUGGCGCGAUAGCGCCAACGUCCUCAACCUCCAAUGCAUCCCACCACAUGAUGAUGCCUGAAGAGCCUUGGUUUCUUG [U38A U132C] here?
Its value is -0.329.

Which “polymerase ribozyme fitness (log ratio)” value does the source give for GACCAAUCUGCCCUCAGAGCUCGAGAACAUCUUCGGACGCAAAGGAGGCAGGCUUCGGUGGCGCGAUAGCGCCAACGUCCUCAACCUCCAAUGCAUCCCACCACAUGAUGAUGCCUGUAGAACCUUGGUUUUUUG [U38C G42A A118U G122A] here?
The value was -3.31.

With GACCAAUCUGCCCUCAGAGCUCGAGAACAUCUUCGGACGCAGAGGAGGCUGGCUUCGGUGGCGCGAUAGCGCCAACGUCCUCAACCUCCAAUGCAUCCCACCACAUGAUGAUGCCUGAAGAGCCUUGGUUUUUUG [U38C A50U] as the variant, how does the “polymerase ribozyme fitness (log ratio)” value read?
The value was -0.941.

For GACCAAUCUGCCCUCAGAGCUCGAGAACAUCUUCGGAGGCAGAGGAGGGAGGCUUCGGUGGCGCGAUAGCGCCAACGUCCUCAACCUCCAAUGCAUCCCACCACAUGAUGAUGCCUGAAGAGCCUUGGUUUUUUG [U38G C49G], which “polymerase ribozyme fitness (log ratio)” value is on record?
The value was -2.14.

— the RNAGym collection of RNA variant scans (doi:10.1073/pnas.2313332121)
